Reference: patent US20260217835A1 (published 2026)
Residue numbers refer to the chain shown, from its start. Names and notes keep the numbering of the source.

B1: IgG4 full-length heavy chain with T366W/L368A/Y407V (SEQ ID NO: 94) with light chain SEQ ID NO: 61 (antibody)
heavy: QVQLQESGPGLVRPSQTLSLTCTVSGYSITSDHAWSWVRQPPGRGLEWIGYISYSGITTYNPSLKSRVTMLRDTSKNQFSLRLSSVTAADTAVYYCARSLARTTAMDYWGQGSLVTVSSASTKGPSVFPLAPCSRSTSESTAALGCLVKDYFPEPVTVSWNSGALTSGVHTFPAVLQSSGLYSLSSVVTVPSSSLGTKTYTCNVDHKPSNTKVDKRVESKYGPPCPPCPAPEFLGGPSVFLFPPKPKDTLMISRTPEVTCVVVDVSQEDPEVQFNWYVDGVEVHNAKTKPREEQFNSTYRVVSVLTVLHQDWLNGKEYKCKVSNKGLPSSIEKTISKAKGQPREPQVYTLPPSQEEMTKNQVSLWCAVKGFYPSDIAVEWESNGQPENNYKTTPPVLDSDGSFFLVSRLTVDKSRWQEGNVFSCSVMHEALHNHYTQKSLSLSL
light: not shown
B2: IgG4 full-length heavy chain with T394W/F405A (SEQ ID NO: 93) with light chain SEQ ID NO: 61 (antibody)
heavy: B1 heavy with W365T, A367L, T393W, F404A, V406Y
light: not shown
B3: IgG2 full-length heavy chain with K392L/T394W/F405A/Y407V (SEQ ID NO: 90) with light chain SEQ ID NO: 61 (antibody)
heavy: QVQLQESGPGLVRPSQTLSLTCTVSGYSITSDHAWSWVRQPPGRGLEWIGYISYSGITTYNPSLKSRVTMLRDTSKNQFSLRLSSVTAADTAVYYCARSLARTTAMDYWGQGSLVTVSSASTKGPSVFPLAPCSRSTSESTAALGCLVKDYFPEPVTVSWNSGALTSGVHTFPAVLQSSGLYSLSSVVTVPSSNFGTQTYTCNVDHKPSNTKVDKTVERKCCVECPPCPAPPVAGPSVFLFPPKPKDTLMISRTPEVTCVVVDVSHEDPEVQFNWYVDGVEVHNAKTKPREEQFNSTFRVVSVLTVVHQDWLNGKEYKCKVSNKGLPAPIEKTISKTKGQPREPQVYTLPPSREEMTKNQVSLTCLVKGFYPSDIAVEWESNGQPENNYLTWPPMLDSDGSFALVSKLTVDKSRWQQGNVFSCSVMHEALHNHYTQKSLSLSP
light: not shown
B4: IgG2 full-length heavy chain with Q347R/K360E/D399V/F405T/K409W (SEQ ID NO: 89) with light chain SEQ ID NO: 61 (antibody)
heavy: B3 heavy with Q345R, K358E, L390K, W392T, D397V, A403T, V405Y, K407W
light: not shown
notes: also called Sample No. 210 full-length heavy chain
B5: IgG2 full-length heavy chain with T394W/F405A (SEQ ID NO: 87) with light chain SEQ ID NO: 61 (antibody)
heavy: B3 heavy with L390K, V405Y
light: not shown
notes: also called Sample No. 208 full-length heavy chain
B6: IgG2 full-length heavy chain with T366W/L368A/Y407V (SEQ ID NO: 88) with light chain SEQ ID NO: 61 (antibody)
heavy: B3 heavy with T364W, L366A, L390K, W392T, A403F
light: not shown
B7: IgG2 full-length heavy chain with K392D/D399K/K409D (SEQ ID NO: 91) with light chain SEQ ID NO: 61 (antibody)
heavy: B3 heavy with L390D, W392T, D397K, A403F, V405Y, K407D
light: not shown
notes: also called Sample No. 212 full-length heavy chain
B8: IgG1 full-length heavy chain with E356K/D399K/K409E/K439E (SEQ ID NO: 36) with light chain SEQ ID NO: 61 (antibody)
heavy: QVQLQESGPGLVRPSQTLSLTCTVSGYSITSDHAWSWVRQPPGRGLEWIGYISYSGITTYNPSLKSRVTMLRDTSKNQFSLRLSSVTAADTAVYYCARSLARTTAMDYWGQGSLVTVSSASTKGPSVFPLAPSSKSTSGGTAALGCLVKDYFPEPVTVSWNSGALTSGVHTFPAVLQSSGLYSLSSVVTVPSSSLGTQTYICNVNHKPSNTKVDKRVEPKSCDKTHTCPPCPAPELLGGPSVFLFPPKPKDTLMISRTPEVTCVVVDVSHEDPEVKFNWYVDGVEVHNAKTKPREEQYNSTYRVVSVLTVLHQDWLNGKEYKCKVSNKALPAPIEKTISKAKGQPREPQVYTLPPSRKEMTKNQVSLTCLVKGFYPSDIAVEWESNGQPENNYKTTPPVLKSDGSFFLYSELTVDKSRWQQGNVFSCSVMHEALHNHYTQESLSLSP
light: not shown
B9: IgG1 full-length heavy chain with Q347E/S354Y/T366Y/Y407T (SEQ ID NO: 39) with light chain SEQ ID NO: 61 (antibody)
heavy: B8 heavy with Q349E, S356Y, K358E, T368Y, K401D, Y409T, E411K, E441K
light: not shown
B10: IgG1 full-length heavy chain with E356K/K392D/D399K/K409D (SEQ ID NO: 56) with light chain SEQ ID NO: 61 (antibody)
heavy: B8 heavy with K394D, E411D, E441K
light: not shown
B11: IgG1 full-length heavy chain with T350V/L351Y/T366L/K392L/T394W/F405A/Y407V (SEQ ID NO: 60) with light chain SEQ ID NO: 61 (antibody)
heavy: QVQLQESGPGLVRPSQTLSLTCTVSGYSITSDHAWSWVRQPPGRGLEWIGYISYSGITTYNPSLKSRVTMLRDTSKNQFSLRLSSVTAADTAVYYCARSLARTTAMDYWGQGSLVTVSSASTKGPSVFPLAPSSKSTSGGTAALGCLVKDYFPEPVTVSWNSGALTSGVHTFPAVLQSSGLYSLSSVVTVPSSSLGTQTYICNVNHKPSNTKVDKRVEPKSCDKTHTCPPCPAPELLGGPSVFLFPPKPKDTLMISRTPEVTCVVVDVSHEDPEVKFNWYVDGVEVHNAKTKPREEQYNSTYRVVSVLTVLHQDWLNGKEYKCKVSNKALPAPIEKTISKAKGQPREPQVYVYPPSREEMTKNQVSLLCLVKGFYPSDIAVEWESNGQPENNYLTWPPVLDSDGSFALVSKLTVDKSRWQQGNVFSCSVMHEALHNHYTQKSLSLSP
light: not shown
B12: IgG1 full-length heavy chain with T366W/L368A/Y407V (SEQ ID NO: 26) with light chain SEQ ID NO: 61 (antibody)
heavy: B8 heavy with K358E, T368W, L370A, K401D, Y409V, E411K, E441K
light: not shown
B13: IgG1 full-length heavy chain with K392L/T394W/F405A/Y407V (SEQ ID NO: 41) with light chain SEQ ID NO: 61 (antibody)
heavy: B11 heavy with V352T, Y353L, L368T
light: not shown
notes: also called Sample No. 200 full-length heavy chain
B14: IgG1 full-length heavy chain with K392D/D399K/K409D (SEQ ID NO: 50) with light chain SEQ ID NO: 61 (antibody)
heavy: B8 heavy with K358E, K394D, E411D, E441K
light: not shown
B15: IgG1 full-length heavy chain with Q347R/K360E/D399V/F405T/K409W (SEQ ID NO: 31) with light chain SEQ ID NO: 61 (antibody)
heavy: B8 heavy with Q349R, K358E, K362E, K401V, F407T, E411W, E441K
light: not shown
B16: IgG1 full-length heavy chain with E356K/K392D/D399K/K439E (SEQ ID NO: 48) with light chain SEQ ID NO: 61 (antibody)
heavy: B8 heavy with K394D, E411K
light: not shown
B17: IgG4 full-length heavy chain K392D/D399K/R409D (SEQ ID NO: 97) with light chain SEQ ID NO: 61 (antibody)
heavy: B1 heavy with W365T, A367L, K391D, D398K, V406Y, R408D
light: not shown
B18: IgG4 full-length heavy chain K392L/T394W/F405A/Y407V (SEQ ID NO: 96) with light chain SEQ ID NO: 61 (antibody)
heavy: B1 heavy with W365T, A367L, K391L, T393W, F404A
light: not shown
B19: IgG2 full-length heavy chain E345R/Q347R/K360D/T366V/D399M/Y407A/K409V (SEQ ID NO: 100) with light chain SEQ ID NO: 61 (antibody)
heavy: B3 heavy with E343R, Q345R, K358D, T364V, L390K, W392T, D397M, A403F, V405A, K407V
light: not shown
notes: also called Sample No. 234
B20: IgG2 full-length heavy chain Q347E/S354Y/T366Y/Y407T (SEQ ID NO: 99) with light chain SEQ ID NO: 61 (antibody)
heavy: B3 heavy with Q345E, S352Y, T364Y, L390K, W392T, A403F, V405T
light: not shown
notes: also called Sample No. 233

Target: the molecule itself
Assay: SEC peak area ratio after coexpression of full-length heavy chain, light chain and Fc fragment

First: B1
Second: B2
The “Homo full-length heavy chain (%)” value of the first is higher: 83% for the first, 82% for the second.

Compared with B3, B4 is higher in “Homo full-length heavy chain (%)” value: 78.5% for the first, 80.4% for the second.

Going from B5 to B6, the “Homo full-length heavy chain (%)” value falls from 80.8% to 80%.

First: B7
Second: B8
The “Homo full-length heavy chain (%)” value of the first is higher: 79.6% for the first, 73.3% for the second.

First: B9
Second: B10
The “Homo full-length heavy chain (%)” value of the first is lower: 70.4% for the first, 70.7% for the second.

First: B11
Second: B12
The “Homo full-length heavy chain (%)” value of the first is lower: 71.9% for the first, 73.8% for the second.

Going from B13 to B14, the “Homo full-length heavy chain (%)” value rises from 72.7% to 76.8%.

Going from B15 to B16, the “Homo full-length heavy chain (%)” value falls from 72.1% to 69.6%.

The binders below were run against T1, IgG2 Fc fragment without modification (SEQ ID NO: 103) (Homo sapiens (Human), UniProt P01859 99-324 = IgG part) (assay: co-expression of full-length heavy chain, light chain and Fc fragment in Expi293F, affinity purification, SEC peak area ratio;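 further: purified antibodies analysed by size exclusion chromatography with UV detection at 215 nm, each species given as share of total chromatogram peak area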).
T1 construct: Fc fragment co-expressed with a full-length heavy chain and the light chain; the associating unit is one Fc chain; also called WT-IgG2 Fc fragment

B17 and B18 are the same in “Heteromultimer (%)” value: 0% for the first, 0% for the second.

B19 and B20 are the same in “Heteromultimer (%)” value: 0% for the first, 0% for the second.

Target: the molecule itself
Assay: as above

First: B17
Second: B18
The “Homo full-length heavy chain (%)” value of the first is higher: 82.5% for the first, 81.5% for the second.

First: B19
Second: B20
The “Homo full-length heavy chain (%)” value of the first is lower: 76.1% for the first, 76.3% for the second.
